In patent US20250304677A1 (VIB VZW, published 2025):

Key:
[1] = target: T1, mouse folate receptor alpha expressed on transfected HEK293T cells (mouse, UniProt P35846 25-232); assay: flow cytometry on HEK293T cells overexpressing mouse FOLR1, His tag detection, PE MFI, non-linear fit
T1 construct: also called cell-expressed mouse FRα
Procedure: (§1) Data were normalized and technical replicates were plotted as mean±SD. Data were fitted by non-linear regression and the half-maximal effective concentration ^{∘}EC50) was calculated using GraphPad Prism 9 software. ^{∘}FIG. 1C and FIG. 1D) Binding affinity determination of anti-FOLR1 VHHs for native FOLR1. Mouse ^{∘}FIG. 1C) or human FOLR1 FIG. 1D) was overexpressed on HEK293T cells and binding of the anti-FOLR1 VHHs was assessed using flow cytometry. The mean fluorescence intensity ^{∘}MFI) of the phycoerythrin signal was plotted for each VHH concentration. Data were fitted by non-linear regression using GraphPad Prism 9 software. ^{∘}FIG. 1E) Determination of the competition of representative family members with folic acid ^{∘}FA) using ELISA. Mouse FOLR1 was coated on the plate and was pre-incubated with or without 100 μM FA before adding the VHHs. Data were fitted by non-linear regression using GraphPad Prism 9 software.

[2] = target: T2, mouse folate receptor alpha (mFRα), recombinant protein (mouse, UniProt P35846 25-232); assay: BLI tandem binning on mouse FRα; competitor (1st association) 2MFR32
T2 construct: Bought recombinant proteins (e.g. biotinylated, Acro Biosystems FO1-M82E9); also called mFOLR1; Ms FOLR1
Source text: VHHs that share high sequence identity in the CDR3 region, a VHH family, are derived from the same B-cell lineage and diverged from each other due to somatic hypermutation or affinity maturation. Typically, VHHs from the same family recognize the same epitope on the target, but may differ in other characteristics ^{∘}De Genst et al 2006 PNAS 103:4586-4591; De Gents et al 2005 J Biol Chem 280:14114-14121). To study whether the VHHs from the different families bound different epitopes, epitope binning was performed using a tandem binding approach in BLI. One VHH from each family was allowed to bind to mouse FRα on the biosensor, followed by binding of the second VHH ^{∘}Table 4).
Competition between VHHs from different complementarity determining region ^{∘}CDR) 3 families was assessed in a tandem binding assay using biolayer interferometry ^{∘}BLI). Streptavidin biosensors were loaded with biotinylated mouse FRα ^{∘}Acro Biosystems, Cat.nr. FO1-M82E9), followed by binding of anti-FRα VHHs ^{∘}VHH in first association). The biosensors were then transferred to a solution containing a second VHH mixed 1:1 with the first VHH ^{∘}VHH in second association). Using the FortéBio Data Analysis Software the absolute additional binding signal for the second association on top of the first association was calculated. The data were normalized per VHH in first association using the following formula: ^{∘}signal-self)/^{∘}maximum-self) with self being the value of the VHH in first association in combination with the same VHH in second association.

[3] = target: T3, human folate receptor alpha expressed on cells (transfected HEK293T, HeLa, MCF7, MDA-MB-231) (human, UniProt P15328 25-234); assay: flow cytometry on HEK293T cells overexpressing human FOLR1, His tag detection, PE MFI, non-linear fit
T3 construct: HEK293T transiently transfected with human FOLR1; also called native human FRα; cell-expressed human FOLR1
Procedure: as §1

[4] = target: T4, human FRβ with R135 replaced by glutamine (human, UniProt P14207 17-230); assay: flow cytometry on transiently transfected HEK293T cells, 200 nM VHH, mouse anti-His then anti-mouse-PE (B575-A)
T4 construct: The entry is the mutant itself; also called hFRβ R135Q
Source text: (§2) FIGS. 2A-2C illustrates the epitope mapping of anti-FOLR1 VHHs on human FOLR1/2 chimeras. ^{∘}FIG. 2A) To narrow down the epitope of the anti-folate receptor alpha ^{∘}FOLR1) VHHs, chimeric constructs were generated by exchanging a sequence block in human FOLR1 ^{∘}hFOLR1) by the corresponding human folate receptor beta ^{∘}hFOLR2) sequence, since the VHHs are able to bind both hFOLR1 and mouse FOLR1 ^{∘}mFOLR1; SEQ ID No.97), but not hFOLR2. These regions are indicated by the green arrows. Chimera 1 SEQ ID No. 67) and 7 ^{∘}Ch7; SEQ ID No. 73) also contain an additional residue change at a separate location. […] HEK293T cells were transfected with hFOLR1, hFOLR2, one of the hFOLR1/2 chimeric constructs ^{∘}FIG. 2B) or single residue mutants ^{∘}FIG. 2C). Binding of VHHs 2HFO19, 2HFO42, 3MFR60, and a mouse anti-FOLR1 monoclonal antibody ^{∘}mAb) was detected using a mouse anti-His tag antibody for the VHHs followed by an anti-mouse-phycoerythrin antibody. All VHHs were tested at a concentration of 200 nM and untransfected cells were used as a negative control. The colors used for the VHHs represent the different CDR3 families; blue: family 1, green: family 3, grey: family 10.
(§3) To further narrow down which specific residues might play a role, single residues of human FRα in the chimera 4 region that are not conserved between FRα and FRβ were mutated to their human FRβ counterpart. While all VHHs retained binding to human FRα E140Q SEQ ID No. 77), R147H ^{∘}SEQ ID No. 79), and Y150H ^{∘}SEQ ID No. 80) ^{∘}data not shown), binding was completely abolished when the Q141R mutation ^{∘}SEQ ID No. 78) was introduced ^{∘}FIG. 2C). To verify the role of this residue in the binding of the VHHs, the R135 residue in human FRβ was replaced by glutamine ^{∘}SEQ ID No. 81) and binding of the VHHs was analyzed. […] In addition to having ^{∘}partially) overlapping epitopes, the VHHs thus all require residue Q141 for binding.

[5] = target: T5, human folate receptor beta (FRβ) (human, UniProt P14207 17-230, limits assumed); assay: flow cytometry on transiently transfected HEK293T cells, mouse anti-His then anti-mouse-PE (B575-A)
T5 construct: also called hFOLR2; human FOLR2
Source text: as §2, §3

human FRα Q141R = target: T6, human FRα Q141R (human, UniProt P15328 25-234); assay: as above
T6 construct: The entry is the mutant itself
Source text: as §2, §3

T1 sequence (P35846 25-232 limits assumed): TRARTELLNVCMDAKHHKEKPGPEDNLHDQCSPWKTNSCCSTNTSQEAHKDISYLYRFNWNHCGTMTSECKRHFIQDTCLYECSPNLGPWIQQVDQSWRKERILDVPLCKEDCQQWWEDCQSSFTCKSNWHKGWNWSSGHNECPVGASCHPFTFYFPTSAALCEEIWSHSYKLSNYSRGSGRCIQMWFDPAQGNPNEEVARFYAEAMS
T2 sequence (P35846 25-232 limits assumed): as above
T5 sequence (P14207 17-230 limits assumed): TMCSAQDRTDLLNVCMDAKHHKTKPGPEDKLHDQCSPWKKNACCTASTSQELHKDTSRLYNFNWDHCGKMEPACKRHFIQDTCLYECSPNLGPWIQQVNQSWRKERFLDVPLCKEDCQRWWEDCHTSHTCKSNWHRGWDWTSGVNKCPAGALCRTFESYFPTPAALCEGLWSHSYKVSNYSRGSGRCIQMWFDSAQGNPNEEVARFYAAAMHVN
T4 sequence (P14207 17-230 R135Q limits assumed): as the sequence (P14207 17-230 limits assumed) above, with R119Q counted along it
T6 sequence (P15328 25-234 Q141R limits assumed): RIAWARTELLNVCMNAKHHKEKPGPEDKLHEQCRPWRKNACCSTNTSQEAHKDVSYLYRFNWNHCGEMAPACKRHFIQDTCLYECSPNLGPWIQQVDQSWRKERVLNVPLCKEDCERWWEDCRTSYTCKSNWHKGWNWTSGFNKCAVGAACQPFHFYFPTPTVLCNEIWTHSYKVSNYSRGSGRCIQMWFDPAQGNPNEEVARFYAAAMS
T3 sequence (P15328 25-234 limits assumed): as the sequence (P15328 25-234 Q141R limits assumed) above, with R117Q counted along it

B1: VHH 3MFR60 (family 10) (VHH)
VHH: QVQLQESGGGLVQAGGSLRVSCAASGIIFSMNGMGWFRQAPGKQRELVASITSGGSTKYADSVKGRFTISRDNAKNTVYLQMNSLKPEDTAVYYCNIQFGSRWSTYWGQGTQVTVSS
EC50 [1]: 1.5 nM
normalized additional binding in 2nd association [2]: 75%
EC50 [3]: 10.1 nM
binding result [4]: binds
binding result [5]: no binding (tested: 200 nM)
binding result (human FRα Q141R): no binding (tested: 200 nM)

B2: VHH 2HFO19 (family 1) (VHH)
VHH: QVQLQESGGGLVQPGGSLRVSCAASGFPFSTVYMSWVRQAPGKGLEWVSGINNDGGVIDYADSVKGRFTISRDNAKNTLYLQLNSLKPEDTALYFCARGRSFVATLSSSLRGQGTQVTVSS
notes: also called Nb19
EC50 [1]: 1.4 nM
normalized additional binding in 2nd association [2]: 100%
EC50 [3]: 4.5 nM
binding result [4]: binds
binding result [5]: no binding (tested: 200 nM)
binding result (human FRα Q141R): no binding (tested: 200 nM)

B3: VHH 2HFO42 (family 3) (VHH)
VHH: QVQLQESGGGLVQAGGSLRLSCAASGSGFSGMIMGWYRQVPGKQRELVATVTSHGTTNYADSVKGRFTISRDNAKNTVLLQMNSLKPEDTAVYYCNAHFPGIYWGKGTQVTVSS
notes: also called 2HF042; Nb42
EC50 [1]: 1.2 nM
normalized additional binding in 2nd association [2]: 41%
EC50 [3]: 26.4 nM
binding result [4]: binds
binding result [5]: no binding (tested: 200 nM)
binding result (human FRα Q141R): no binding (tested: 200 nM)
